One assay concerns the target FGFR2K^R678E (human). In words: NMR CPMG relaxation dispersion.
Another assay concerns the target FGFR2K^R678G (human). In words: NMR CPMG relaxation dispersion.

The results in this text go back to publication PMC7040854.

In the assay with FGFR2K^R678E (human), FGFR2K^R678E (domain or fragment) had a Kd of 8 mM. In other words, the millimolar range.
FGFR2K^R678G (domain or fragment): in the assay with FGFR2K^R678G (human), the Kd came to 55 mM. This lies in the millimolar range.

As usually defined, the Kd is the concentration at which binding is half-saturated. The low end stands for higher affinity, the high end for lower affinity.
